B1: IL-10R-Ig (Fc fusion, UniProt Q13651 22-235, looked up)
chain: HGTELPSPPSVWFEAEFFHHILHWTPIPNQSESTCYEVALLRYGIESWNSISNCSQTLSYDLTAVTLDLYHSNGYRARVRAVDGSRHSNWTVTNTRFSVDEVTLTVGSVNLEIHNGFILGKIQLPRPKMAPANDTYESIFSHFREYEIAIRKVPGNFTFTHKKVKHENFSLLTSGEVGEFCVQVKPSVASRSNKGMWSKEECISLTRQYFTVTN
notes: Control; Used as supernatant of cells transfected with IL-10R-Ig fusion cDNA; The construct is not described; also called IL-10R-Ig fusion; not shown: Ig part of the control fusion is not described
B3: LICR-2-Ig (Fc fusion, murine)
chain: RPRLAPPQNVTLLSQNFSVYLTWLPGLGNPQDVTYFVAYQSSPTRRRWREVEECAGTKELLCSMMCLKKQDLYNKFKGRVRTVSPSSKSPWVESEYLDYLFEVEPAPPVLVLTQTEEILSANATYQLPPCMPPLDLKYEVAFWKEGAGNKTLFPVTPHVTPHGQPVQITLQPAASEHHCLSARTIYTFSVPKYSKFSKPTCFLLEVPEPRIPKPSTPPGSSCPPGNILGGPSVFIFPPKPKDALMISLTPKVTCVVVDVSEDDPDVHVSWFVDNKEVHTAWTQPREAQYNSTFRVVSALPIQHQDWMRGKEFKCKVNNKALPAPIERTISKPKGRAQTPQVYTIPPPREQMSKKKVSLTCLVTNFFSEAISVEWERNGELEQDYKNTPPILDSDGTYFLYSKLTVDTDSWLQGEIFTCSVVHEALHNHHTQKNLSRSPGK
notes: domain: hinge, and the CH2 and CH3 domains; Used as unpurified supernatant of transfected HEK293-EBNA cells

What was measured:
bovine serum albumin [1] = biological target: T1, bovine serum albumin (bovine, UniProt P02769 25-607); experiment: ELISA, plate coated with BSA, 50 µl control supernatant, anti-murine Ig-peroxidase detection
T1 construct: Control coating protein; also called BSA
T1 sequence (P02769 25-607 limits assumed): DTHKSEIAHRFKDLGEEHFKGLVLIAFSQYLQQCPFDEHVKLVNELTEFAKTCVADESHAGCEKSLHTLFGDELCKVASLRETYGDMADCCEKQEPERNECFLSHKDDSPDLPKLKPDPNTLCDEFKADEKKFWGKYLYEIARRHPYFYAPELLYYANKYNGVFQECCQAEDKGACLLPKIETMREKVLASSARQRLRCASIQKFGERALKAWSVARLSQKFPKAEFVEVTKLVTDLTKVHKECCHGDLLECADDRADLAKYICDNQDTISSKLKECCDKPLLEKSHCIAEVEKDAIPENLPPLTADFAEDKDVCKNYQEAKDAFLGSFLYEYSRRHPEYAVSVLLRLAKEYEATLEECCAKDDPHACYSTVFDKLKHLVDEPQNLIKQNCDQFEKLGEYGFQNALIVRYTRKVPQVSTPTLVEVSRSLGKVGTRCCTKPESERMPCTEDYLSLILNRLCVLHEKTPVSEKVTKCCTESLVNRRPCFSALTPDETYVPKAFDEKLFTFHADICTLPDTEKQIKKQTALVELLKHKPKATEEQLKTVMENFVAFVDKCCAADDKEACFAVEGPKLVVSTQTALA
Protocol: (§1) Interaction analysis was carried out via ELISA. In brief, plates were coated with either recombinant AK155; Knappe, et al., J. Virol 74:3881-7 (2000), incorporated by reference, recombinant human IL-22, or 0.02 μg/ml of bovine serum albumin, and incubated with the test sample overnight at 4° C. The test substance, in all cases, was mixed in 20 mM Tris glycine buffer containing 30 mM NaCl, pH 9.2. After washing in PBS buffer plus Tween 20 (1×10⁻⁴ v/v), plates were blocked with PBS plus 1% BSA for 4 hours. 50 μl of supernatant derived from cells transfected with LICR-2 or with control supernatant referred to supra were added, and the plates were incubated for 2 hours, at 37° C. Bound LICR-2-Ig was detected using anti-murine Ig polyclonal antibodies coupled to peroxidase. The reaction was developed by adding 100 μl of TMB (1.25 mM), followed by 20 μl of H₂SO₄ (2M) to stop the reaction. Absorbance was measured at 450 nm.

LICR-2-Ig = biological target: B3; experiment: ELISA, plate coated with recombinant human IL-22, 50 µl supernatant, anti-murine Ig-peroxidase detection
Protocol: as §1

IL-10R-Ig [2] = biological target: B1; experiment: ELISA, plate coated with recombinant human IL-22, 50 µl control supernatant, anti-murine Ig-peroxidase detection
Protocol: as §1

bovine serum albumin [3] = biological target: T1, bovine serum albumin; experiment: ELISA, plate coated with BSA, 50 µl supernatant, anti-murine Ig-peroxidase detection
Protocol: as §1

IL-10R-Ig [4] = biological target: B1; experiment: ELISA, plate coated with recombinant AK155, 50 µl control supernatant, anti-murine Ig-peroxidase detection
Protocol: as §1

B1
binding result (bovine serum albumin [1]): no binding (tested: 0.02 µg/ml BSA (coating))

B2: recombinant human IL-22 (ligand, UniProt Q9GZX6 34-179, looked up)
chain: APISSHCRLDKSNFQQPYITNRTFMLAKEASLADNNTDVRLIGEKLFHGVSMSERCYLMKQVLNFTLEEVLFPQSDRFQPYMQEVVPFLARLSNRLSTCHIEGDDLHIQRNVQKLKDTVKKLGESGEIKAIGELDLLFMSLRNACI
notes: also called IL-TIF
binding result (LICR-2-Ig): no binding
binding result (IL-10R-Ig [2]): no binding

B3
binding result (bovine serum albumin [3]): no binding (tested: 0.02 µg/ml BSA (coating))

B4: recombinant AK155 (ligand, human, UniProt Q9NPH9 22-171, looked up)
chain: KHKQSSFTKSCYPRGTLSQAVDALYIKAAWLKATIPEDRIKNIRLLKKKTKKQFMKNCQFQEQLLSFFMEDVFGQLQLQGCKKIRFVEDFHSLRQKLSHCISCASSAREMKSITRMKRIFYRIGNKGIYKAISELDILLSWIKKLLESSQ
notes: Coated on the ELISA plate; The assay paragraph says only 'recombinant AK155'
binding result (IL-10R-Ig [4]): no binding

Reference: patent US20030158100A1 (LUDWIG INSTITUTE FOR CANCER RESEARCH, published 2003)
